The values below come from paper PMC12575831.

The subject of the data set is PUS7 (pseudouridine synthase 7) (Homo sapiens). The data set is described as follows: EMSA. To be noted: 1 mM Mg2+; 40 nM RNA, 0-500 nM PUS7; none (unmodified IVT, U250); 10 mM Tris-HCl pH 7.5, 100 mM KCl, 1 mM MgCl2, 0.1 mM DTT, 5% glycerol; 37 °C 30 min; gel 4-20% TBE at 4 °C. In general terms: In EMSA bound probe runs differently from free probe, usually more slowly.

pKd: −log10 of the molar value.

What is called pKd is −log10 of the Kd, conventionally taken in molar units.

In turn, in vitro-transcribed 7SK snRNA showed a negative logarithm of the Kd (pKd) of 7.01.
